These results are taken from publication doi:10.1101/2025.03.24.644901, “Substrate recognition by human separase” (bioRxiv, 2025).

In this assay the target is T1, inactive apo-separase (separase^C2029S) (human, UniProt Q14674 1-2120, C2029S).
T1 construct: human separase, aa 1-2120, catalytic cysteine replaced with serine; AIL1 and the autocleavage sites are intact in this construct; also called apo-separase^C2029S; source: Sf9 (baculovirus), purified (StrepTactin, heparin, Superose 6)
As to the kind of experiment: fluorescence polarisation; FlAsH-labelled MBP-SCC1 fragment as probe, inactive separase added; 25 mM HEPES pH 8.0, 100 mM NaCl, 0.1 mg/ml BSA, 0.01% NP40; 25°C; One Site-Total non-linear fit; three repeats. Particulars: both partners purified. In general terms: In fluorescence polarisation assays a small probe gives low polarisation when free and higher when bound to something large.

T1 sequence (Q14674 whole entry C2029S, the tested form may be a part): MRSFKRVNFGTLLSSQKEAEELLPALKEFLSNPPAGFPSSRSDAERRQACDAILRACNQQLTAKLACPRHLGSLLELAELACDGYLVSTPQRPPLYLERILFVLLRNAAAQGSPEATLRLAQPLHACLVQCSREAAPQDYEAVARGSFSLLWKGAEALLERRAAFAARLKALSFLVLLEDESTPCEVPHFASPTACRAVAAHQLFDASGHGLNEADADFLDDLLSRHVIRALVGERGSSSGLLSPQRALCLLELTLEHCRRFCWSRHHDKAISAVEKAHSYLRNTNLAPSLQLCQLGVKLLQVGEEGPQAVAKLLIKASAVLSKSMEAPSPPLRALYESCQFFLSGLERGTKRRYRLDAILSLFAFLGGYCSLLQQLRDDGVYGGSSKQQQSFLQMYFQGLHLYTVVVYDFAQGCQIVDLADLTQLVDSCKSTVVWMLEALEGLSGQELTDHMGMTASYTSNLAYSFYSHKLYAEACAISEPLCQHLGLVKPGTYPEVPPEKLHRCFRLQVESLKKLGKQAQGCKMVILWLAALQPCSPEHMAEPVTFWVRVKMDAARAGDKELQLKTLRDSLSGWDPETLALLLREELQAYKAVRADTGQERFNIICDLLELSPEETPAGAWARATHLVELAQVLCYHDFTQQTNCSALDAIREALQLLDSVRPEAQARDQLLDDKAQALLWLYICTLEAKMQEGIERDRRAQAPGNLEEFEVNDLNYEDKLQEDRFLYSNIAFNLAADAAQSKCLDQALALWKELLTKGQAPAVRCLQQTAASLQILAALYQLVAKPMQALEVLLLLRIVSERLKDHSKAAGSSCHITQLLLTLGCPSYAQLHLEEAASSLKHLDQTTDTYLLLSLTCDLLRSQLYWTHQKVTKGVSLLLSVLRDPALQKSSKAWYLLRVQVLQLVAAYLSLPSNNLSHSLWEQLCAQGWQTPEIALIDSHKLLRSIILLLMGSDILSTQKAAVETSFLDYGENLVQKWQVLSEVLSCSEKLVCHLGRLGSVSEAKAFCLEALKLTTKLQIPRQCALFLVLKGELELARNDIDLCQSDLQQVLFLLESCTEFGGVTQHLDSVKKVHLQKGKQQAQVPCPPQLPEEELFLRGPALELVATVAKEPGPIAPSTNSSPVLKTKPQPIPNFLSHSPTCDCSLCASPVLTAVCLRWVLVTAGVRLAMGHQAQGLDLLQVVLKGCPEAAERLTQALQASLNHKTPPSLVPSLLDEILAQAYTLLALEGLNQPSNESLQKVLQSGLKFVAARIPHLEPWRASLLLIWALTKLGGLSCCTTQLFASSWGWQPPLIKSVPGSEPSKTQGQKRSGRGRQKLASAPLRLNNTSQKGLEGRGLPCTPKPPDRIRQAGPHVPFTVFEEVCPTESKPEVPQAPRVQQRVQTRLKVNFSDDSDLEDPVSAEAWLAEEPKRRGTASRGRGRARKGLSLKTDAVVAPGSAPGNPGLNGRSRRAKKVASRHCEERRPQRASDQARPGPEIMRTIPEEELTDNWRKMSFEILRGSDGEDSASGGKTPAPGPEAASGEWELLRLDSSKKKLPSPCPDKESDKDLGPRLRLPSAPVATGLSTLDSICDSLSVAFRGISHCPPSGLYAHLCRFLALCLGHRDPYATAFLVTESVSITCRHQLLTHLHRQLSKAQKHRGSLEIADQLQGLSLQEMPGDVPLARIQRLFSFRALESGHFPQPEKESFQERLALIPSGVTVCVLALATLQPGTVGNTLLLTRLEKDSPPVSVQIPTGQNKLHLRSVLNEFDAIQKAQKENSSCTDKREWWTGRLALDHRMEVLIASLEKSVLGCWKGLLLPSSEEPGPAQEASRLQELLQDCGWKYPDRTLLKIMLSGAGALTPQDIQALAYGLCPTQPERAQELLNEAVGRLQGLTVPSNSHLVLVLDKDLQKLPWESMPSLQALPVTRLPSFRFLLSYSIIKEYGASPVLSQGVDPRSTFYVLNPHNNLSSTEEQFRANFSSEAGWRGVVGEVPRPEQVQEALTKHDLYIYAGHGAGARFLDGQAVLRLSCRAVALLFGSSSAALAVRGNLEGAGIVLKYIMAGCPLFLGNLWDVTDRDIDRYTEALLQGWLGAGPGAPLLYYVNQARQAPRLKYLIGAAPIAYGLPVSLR

B1: MBP-SCC1 (aa 350-550) with C-terminal tetracysteine motif, FlAsH-labelled (domain or fragment, human, UniProt O60216 350-550, looked up)
chain: TLDLAPPTKKLMMWKETGGVEKLFSLPAQPLWNNRLLKLFTRCLTPLVPEDLRKRRKGGEADNLDEFLKEFENPEVPREDQQQQHQQRDVIDEPIIEEPSRLQESVMEASRTNIDESAMPPPPPQGVKRKAGQIDPEPVMPPQQVEQMEIPPVELPPEEPPNICQLIPELELLPEKEKEKEKEKEDDEEEEDEDASGGDQD
modifications: FlAsH-EDT2 fluorescent dye on the C-terminal tetracysteine motif
notes: human SCC1/RAD21, aa 350-550 (holds cleavage site 2, R427); also called SCC1^350–550; SCC1 site 2 (aa 350-550); source: E. coli BL21 (DE3), purified (Hitrap MBP, Superdex 200); not shown: 6xHis-MBP, N-terminal, kept
Regarding B1, the binding result is “binds”.
